{"source": "patent US20090306338A1", "about": "(TRUSTEES OF TUFTS COLLEGE, published 2009)", "key": {"[1]": {"molecular_target": "human GLP-1 receptor (human) (UniProt P43220)", "sequence (P43220 24-463)": "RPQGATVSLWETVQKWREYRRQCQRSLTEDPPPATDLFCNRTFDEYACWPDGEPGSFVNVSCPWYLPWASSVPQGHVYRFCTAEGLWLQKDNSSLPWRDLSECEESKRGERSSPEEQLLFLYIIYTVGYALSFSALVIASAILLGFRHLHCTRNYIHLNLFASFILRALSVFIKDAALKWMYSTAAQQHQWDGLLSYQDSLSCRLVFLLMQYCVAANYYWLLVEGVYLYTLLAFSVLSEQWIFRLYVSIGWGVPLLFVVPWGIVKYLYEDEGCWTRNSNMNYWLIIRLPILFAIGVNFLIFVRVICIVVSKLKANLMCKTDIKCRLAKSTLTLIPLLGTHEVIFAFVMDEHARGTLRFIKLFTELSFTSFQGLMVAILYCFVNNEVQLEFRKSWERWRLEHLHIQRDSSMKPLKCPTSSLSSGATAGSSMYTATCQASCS"}, "[2]": {"molecular_target": "human GLP-1 receptor (human) (UniProt P43220)", "assay": "cell-based or functional assay"}, "[3]": {"molecular_target": "T1, human GLP-1 receptor (human, UniProt P43220 24-463)"}, "[4]": {"molecular_target": "T1, human GLP-1 receptor", "assay": "cell-based or functional assay"}, "[5]": {"molecular_target": "T1, human GLP-1 receptor", "assay": "cell-based or functional assay", "remark": "listed apart in the source"}}, "note": "Square brackets hold non-standard residues; d marks the D form. Ends that are not written are not given here. Asp(3,3-Me2) = CC(C)(C(=O)O)[C@H](N)C(=O)O"}
{"molecule": "Exendin-4 (peptide; other documents disagree on this pair)", "values": [{"measurement": "IC50", "setting": "[1]", "value": 0.4, "unit": "nM"}]}
{"molecule": "Exendin-4 (peptide)", "values": [{"measurement": "EC50 for receptor activation (cAMP)", "setting": "[2]", "value": "0.1 to 0.5", "unit": "nM"}]}
{"molecule": "HA[Asp(3,3-Me2)]GTFTSDVSSYLEGQAAKEFIAWLVKGRPSSGAPPPS (ends and bridges not checked)", "note": "[P1732]", "values": [{"measurement": "IC50", "setting": "[3]", "value": 2.5, "unit": "nM"}, {"measurement": "EC50 for receptor activation (cAMP)", "setting": "[4]", "value": "0.4 to 1.1", "unit": "nM"}, {"measurement": "EC50 (nM), cAMP production in COS-7 cells expressing the human GLP-1 receptor", "setting": "[5]", "value": 0.64, "unit": "nM"}]}
